The source of these data is paper PMC12191924, “A new naphthalene-based fluorogenic substrate for cytochrome P450 4A11” (Biochemical Journal, 2025).

One series concerns the target T1, CYP1A2 (Homo sapiens, UniProt P05177).
T1 sequence (P05177 1-516): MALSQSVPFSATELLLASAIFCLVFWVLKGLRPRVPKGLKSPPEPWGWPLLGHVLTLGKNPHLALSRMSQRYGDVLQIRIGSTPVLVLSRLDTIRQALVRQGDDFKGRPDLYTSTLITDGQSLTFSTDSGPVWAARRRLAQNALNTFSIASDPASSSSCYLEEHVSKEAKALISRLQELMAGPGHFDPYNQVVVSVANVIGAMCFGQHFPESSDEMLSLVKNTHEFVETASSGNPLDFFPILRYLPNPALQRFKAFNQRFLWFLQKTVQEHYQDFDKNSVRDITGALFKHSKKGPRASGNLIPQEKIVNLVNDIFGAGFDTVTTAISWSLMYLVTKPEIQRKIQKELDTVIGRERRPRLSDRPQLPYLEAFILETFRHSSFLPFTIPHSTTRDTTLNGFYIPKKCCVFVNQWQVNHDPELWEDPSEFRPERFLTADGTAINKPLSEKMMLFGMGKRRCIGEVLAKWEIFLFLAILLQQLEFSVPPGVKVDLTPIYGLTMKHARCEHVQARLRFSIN
It is filed as biochemical. From the text:
(§1) Thus, we decided to probe the derivatives of methoxynaphthalene as CYP4A11 substrates. The simplest potential methoxynaphthalene-based P450 substrate is 6-methoxy-2-naphthoic acid, a close analog of naproxen, which is known to be metabolized by P450 enzymes. […] This molecule is apparently too small to be a CYP4A11 substrate. Thus, we searched commercially available derivatives of methoxynaphthalene to find a compound with a longer carboxylic acid chain substituent in the naphthalene ring. This search identified MONACRA (Figure 1) as a potential CYP4A11 substrate. […] We attempted to design a fluorimetric assay of its metabolism suitable for high-throughput studies in HLM.

Another series concerns the target T2, CYP4A11 (Homo sapiens, UniProt Q02928).
T2 sequence (Q02928 5-519): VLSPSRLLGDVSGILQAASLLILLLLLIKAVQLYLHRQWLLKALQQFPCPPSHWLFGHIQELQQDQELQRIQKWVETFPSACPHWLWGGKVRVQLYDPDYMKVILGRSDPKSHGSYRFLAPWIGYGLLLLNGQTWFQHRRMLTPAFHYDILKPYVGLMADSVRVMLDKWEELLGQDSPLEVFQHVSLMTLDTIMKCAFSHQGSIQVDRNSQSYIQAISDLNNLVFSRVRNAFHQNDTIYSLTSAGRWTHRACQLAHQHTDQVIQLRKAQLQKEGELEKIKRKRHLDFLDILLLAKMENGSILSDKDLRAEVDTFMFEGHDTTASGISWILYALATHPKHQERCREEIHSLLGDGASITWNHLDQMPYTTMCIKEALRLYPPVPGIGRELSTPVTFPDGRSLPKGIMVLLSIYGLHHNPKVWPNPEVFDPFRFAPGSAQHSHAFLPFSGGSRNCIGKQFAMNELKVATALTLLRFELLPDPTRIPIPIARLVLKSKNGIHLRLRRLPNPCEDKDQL
The series can be described thus: Probing 6-methoxy-2-naphthoic acid as a P450 substrate (data not shown). It is filed as biochemical.
From the text: as §1

Substrate in series [1]: COc1ccc2cc(C=CC(=O)O)ccc2c1
Briefly: MONACRA demethylation by recombinant CYP2C8 in Supersomes, high-throughput fluorimetric assay. It is filed as biochemical, human. The conditions noted are these: other: CYP2C8 Supersomes; Michaelis–Menten fit. Here is the method:
(§2) Based on these observations, we developed a high-throughput automated assay applicable for studying SSPs of MONACRA metabolism by microsomal P450 enzymes. In this procedure, the incubation mixtures containing an NADPH-generating system and various substrate concentrations are placed in a multiwell plate and preincubated at 30°C in a thermostated shaker. The reaction is started by adding microsomal suspension to the final concentration of 0.3–1 mg/ml of microsomal protein or 0.02–0.1 µM of recombinant P450 enzymes in Supersomes. Following the incubation for 20 min at 30°C, the reaction is quenched by adding trichloroacetic acid (final concentration […]). After supplementing the wells with Na-glycine buffer (pH 10.4, final concentration 2.1 M), the plates are subjected to scanning the fluorescence spectra with excitation at 375 nm. This assay, which is described in detail in Materials and Methods, allows reliable detection of the concentrations of HONACRA as low as 0.1 µM.
(§3) We used the high-throughput activity assay described above to probe MONACRA metabolism by 16 human microsomal P450 enzymes, namely CYP1A2, CYP2A6, CYP2B6, CYP2C8, CYP2C9, CYP2C19, CYP2D6, CYP2E1, CYP2J2, CYP3A4, CYP3A5, CYP4A11, CYP4F2, CYP4F3A, CYP4F3B, and CYP4F12. […]

Substrate in series [2]: COc1ccc2cc(C=CC(=O)O)ccc2c1
Briefly: MONACRA demethylation by recombinant CYP1A2 in Supersomes, high-throughput fluorimetric assay. It is filed as biochemical, human. The conditions noted are these: other: CYP1A2 Supersomes; substrate inhibition equation; ± = confidence interval P=0.05. Here is the method:
as §2, §3

As for `COc1ccc2cc(C(=O)O)ccc2c1` [6-methoxy-2-naphthoic acid], the “O-demethylation by P450 enzymes” value at CYP1A2 was “undergoes O-demethylation catalyzed predominantly by CYP1A2”. For the same molecule, the “metabolism by CYP4A11” value at CYP4A11 is listed as “not metabolized by CYP4A11”.

B1: CYP2C8 (Homo sapiens) (protein)
chain: MEPFVVLVLCLSFMLLFSLWRQSCRRRKLPPGPTPLPIIGNMLQIDVKDICKSFTNFSKVYGPVFTVYFGMNPIVVFHGYEAVKEALIDNGEEFSGRGNSPISQRITKGLGIISSNGKRWKEIRRFSLTTLRNFGMGKRSIEDRVQEEAHCLVEELRKTKASPCDPTFILGCAPCNVICSVVFQKRFDYKDQNFLTLMKRFNENFRILNSPWIQVCNNFPLLIDCFPGTHNKVLKNVALTRSYIREKVKEHQASLDVNNPRDFIDCFLIKMEQEKDNQKSEFNIENLVGTVADLFVAGTETTSTTLRYGLLLLLKHPEVTAKVQEEIDHVIGRHRSPCMQDRSHMPYTDAVVHEIQRYSDLVPTGVPHAVTTDTKFRNYLIPKGTTIMALLTSVLHDDKEFPNPNIFDPGHFLDKNGNFKKSDYFMPFSAGKRICAGEGLARMELFLFLTTILQNFNLKSVDDLKNLNTTAVTKGIVSLPPSYQICFIPV
notes: purchased Gentest (Huntsville, AL), now a part of Discovery Life Sciences lot 81760; host or cells: insect cells, recombinant baculovirus
On to B1, for which, in series [1], the Km came out at 456 ± 188 µM and the turnover number (kcat) is 0.0267 ± 0.0117 s⁻¹.

B2: CYP1A2 (Homo sapiens) (protein)
chain: ALSQSVPFSATELLLASAIFCLVFWVLKGLRPRVPKGLKSPPEPWGWPLLGHVLTLGKNPHLALSRMSQRYGDVLQIRIGSTPVLVLSRLDTIRQALVRQGDDFKGRPDLYTSTLITDGQSLTFSTDSGPVWAARRRLAQNALNTFSIASDPASSSSCYLEEHVSKEAKALISRLQELMAGPGHFDPYNQVVVSVANVIGAMCFGQHFPESSDEMLSLVKNTHEFVETASSGNPLDFFPILRYLPNPALQRFKAFNQRFLWFLQKTVQEHYQDFDKNSVRDITGALFKHSKKGPRASGNLIPQEKIVNLVNDIFGAGFDTVTTAISWSLMYLVTKPEIQRKIQKELDTVIGRERRPRLSDRPQLPYLEAFILETFRHSSFLPFTIPHSTTRDTTLNGFYIPKKCCVFVNQWQVNHDPELWEDPSEFRPERFLTADGTAINKPLSEKMMLFGMGKRRCIGEVLAKWEIFLFLAILLQQLEFSVPPGVKVDLTPIYGLTMKHARCEHVQARLRFSIN
notes: purchased Gentest (Supersomes), now a part of Discovery Life Sciences; CYP1A2 is not in the lot list; host or cells: insect cells, recombinant baculovirus
As for B2, in series [2], the Michaelis constant (Km) came out at 161 ± 34 µM and the kcat stood at 0.733 ± 0.1 s⁻¹.

For orientation: Km means the substrate concentration at which the rate is half of its maximum. The term kcat denotes the maximal rate divided by the concentration of active sites.
